# Measurements from US20230241247.
# B1: immunoglobulin G (IgG)-degrading enzyme from Streptococcus pyogenes (IdeS; Promega) (protein)
# chain: DSFSANQEIRYSEVTPYHVTSVWTKGVTPPANFTQGEDVFHAPYVANQGWYDITKTFNGKDDLLCGAATAGNMLHWWFDQNKDQIKRYLEEHPEKQKINFNGEQMFDVKEAIDTKNHQLDSKLFEYFKEKAFPYLSTKHLGVFPDHVIDMFINGYRLSLTNHGPTPVKEGSKDPRGGIFDAVFTRGDQSKLLTSRHDFKEKNLKEISDLIKKELTEGKALGLSHTYANVRINHVINLWGADFDSNGNLKAIYVTDSDSNASIGMKKYFVGVNSAGKVAISAKEIKEDNIGAQVLGLFTLSTGQDSWNQTN
# Columns and labels:
# [1] = molecular target: hamster IgG (IgG in pooled hamster plasma)
# [2] = molecular target: human IgG (total IgG in human serum / pooled human plasma)
# [3] = molecular target: rhesus IgG (total IgG in rhesus macaque plasma)
protein,measurement,setting,value
B1,"cleavage of IgG in serum/plasma in vitro (non-reducing SDS-PAGE, Coomassie stain)",[1],"IdeS is a highly efficient and specific protease of human IgG, rhesus IgG and hamster IgG"
same,"cleavage of IgG in serum/plasma in vitro (non-reducing SDS-PAGE, Coomassie stain)",[2],"IdeS is a highly efficient and specific protease of human IgG, rhesus IgG and hamster IgG"
same,"cleavage of IgG in serum/plasma in vitro (non-reducing SDS-PAGE, Coomassie stain)",[3],"IdeS is a highly efficient and specific protease of human IgG, rhesus IgG and hamster IgG"
